Laboratory results: US12371456B2, “Proteins for the treatment of epithelial barrier function disorders” (Genevive, Inc., priority 2017, dated 2025)

What was measured:
[1] = system: HCT8 enterocytes and HT29-MTX goblet cells (epithelial monolayer) co-cultured with U937 monocytes; experiment: Co-culture trans-epithelial electrical resistance (TEER) assay, barrier disruption by heat killed E. coli; assay type: cell-based, human
Experimental: Assays were performed as described below in trans-well plates where co-cultures of multiple cell types were performed utilizing a permeable membrane to separate cells. In the apical (top) chamber, human colonic epithelial cells, consisting of a mixture of enterocytes and goblet cells, were cultured until cells obtained tight junction formation and barrier function capacity as assessed by measurement of trans-epithelial electrical resistance (TEER). In the basolateral chamber, monocytes were cultured separately. Epithelial cells were primed with inflammatory cytokines.
Cell culture. The HCT8 human enterocyte cell line (ATCC Cat. No. CCL-244) was maintained in RPMI-1640 medium supplemented with 10% fetal bovine serum, 100 IU/ml penicillin, 100 µg/ml streptomycin, 10 µg/ml gentamicin and 0.25 µg/ml amphotericin (cRPMI). HT29-MTX human goblet cells (Sigma-Aldrich (St. Louis, MO; Cat. No. 12040401) were maintained in DMEM medium with 10% fetal bovine serum, 100 IU/ml penicillin, 100 µg/ml streptomycin, 10 µg/ml gentamicin and 0.25 µg/ml amphotericin (cDMEM). Epithelial cells were passaged by trypsinization and were used between 5 and 15 passages following thawing from liquid nitrogen stocks. U937 monocytes (ATCC Cat. No. 700928) were maintained in cRPMI medium as a suspension culture, and split by dilution as needed to maintain cells between 5×10^5 and 2×10^6 cells/ml. U937 cells were used up to passage 18 following thawing from liquid nitrogen stocks.
Epithelial cell culture. A mixture of HCT8 enterocytes and HT29-MTX goblet cells were plated at a 9:1 ratio, respectively, in the apical chamber of the transwell plate as described previously (Berget et al., 2017, Int J Mol Sci, 18:1573; Beduneau et al., 2014, Eur J Pharm Biopharm, 87:290-298). […] Epithelial cells were trypsinized from culture flasks and viable cells determined by trypan blue counting. […]
Co-culture assay. […] Trans-epithelial electrical resistance (TEER) readings were measured after the IFN-γ treatment and were used as the pre-treatment TEER values. […]

[2] = system: DSS model of inflammatory bowel disease; experiment: DSS model: 4 KDa-FITC dextran translocation across the epithelial barrier; assay type: in vivo, C57BL/6 mice; settings: 50 nmoles/kg i.p. b.i.d., 2.5% DSS 6 days; FIG. 6
Experimental: Eight-week old C57BL/6 mice were housed 5 animals were cage and given food and water ad libitum for 7 days. Following the 7-day acclimation period, treatments were initiated concurrently with addition of 2.5% DSS to the drinking water. […] The mice were treated with 2.5% dextran sodium sulfate (DSS) in their drinking water for 6 days. Treatments were continued with SG-14 or […]-GLP2 twice a day (b.i.d.) in the morning and evening (every 8 and 16 hr) with i.p. injections at 50 nmoles/kg. Fresh 2.5% DSS drinking water was prepared every 2 days. On day six, mice were fasted for four hours and then orally gavaged with 600 mg/kg 4 KDa dextran labeled with fluorescein isothiocyanate (FITC) [4 KDa-FITC]. One hour after the 4 KDa-FITC gavage mice were euthanized, blood was collected and FITC signal was measured in serum. […] Results are shown in FIG. 6, and are presented as mean SEM. The graph in FIG. 6 represents data pooled from the single experiment (n=10).

[3] = system: DSS model of inflammatory bowel disease; experiment: DSS model: colon length and colon weight to length ratio; assay type: in vivo, C57BL/6 mice; settings: DSS treated mice
Experimental: Eight-week old C57BL/6 mice were housed 5 animals were cage and given food and water ad libitum for 7 days. Following the 7-day acclimation period, treatments were initiated concurrently with addition of 2.5% DSS to the drinking water. […] The mice were treated with 2.5% dextran sodium sulfate (DSS) in their drinking water for 6 days. Treatments were continued with SG-14 or […]-GLP2 twice a day (b.i.d.) in the morning and evening (every 8 and 16 hr) with i.p. injections at 50 nmoles/kg. Fresh 2.5% DSS drinking water was prepared every 2 days. Colon length was measured in mice included in the DSS model described in Example 7. […] The graphs in FIG. 10 and FIG. 11 represent data pooled from the single experiment (n=10).

[4] = system: IL-10; experiment: IL-10 production by monocytes in co-culture TEER assay (Luminex); assay type: cell-based, human; settings: pre-incubated 6 hours prior to HK E. coli; FIG. 3
Experimental: IL-10 production was measured in tissue culture supernatant from the basolateral chamber of the co-culture TEER assay described in Example 2 containing monocytes. Luminex analysis was performed to determine the pg/ml concentration of IL-10 produced by the monocytes. IL-10 production in untreated cells and cells pre-incubated with SG-14 for 6 hours prior to HK E. coli treatment were normalized to pg/ml concentrations elicited by HK E. coli which was set to 1.0. Pre-incubation with SG-14 increased IL-10 production to 1.21. The graph in FIG. 3 represents data pooled from two individual experiments (n=6).

[5] = system: TNF-α; experiment: TNF-α production by monocytes in co-culture TEER assay (Luminex); assay type: cell-based, human; settings: pre-incubated 6 hours prior to HK E. coli; FIG. 2A
Experimental: Production of the pro-inflammatory cytokines TNF-α and IL-23 by monocytes was measured in the tissue culture supernatant from the basolateral chamber of the co-culture TEER assay performed in Example 2. Following TEER readings, the supernatants were centrifuged at 10,000 g for 5 minutes at 4° C. to remove cell debris. Luminex analysis was performed according to the manufacturer's instructions (Magpix instrument and xPonent software version 4.2; Luminex Corporation (Austin, TX)). Luminex analysis was performed to determine the pg/ml concentration of TNF-α and IL-23 produced by monocytes. Luminex analysis utilizes a bead-based system for quantification of multiple cytokines from a single sample. Like an ELISA, Luminex beads are coated with a capture antibody, and incubation with samples allows the target to bind to the capture antibody. Beads are washed and incubated with a fluorescently labeled detection antibody for quantification of bound target. Cytometric analysis is used to differentiate bead populations, which are loaded with differential fluorescent dyes, and to quantify cytokine levels by measuring detection antibody signal. TNF-α production in untreated cells and cells pre-incubated with SG-14 for 6 hours prior to HK E. coli treatment were normalized to pg/ml concentrations elicited by HK E. coli which was set to 1.0. […]

[6] = system: DSS model of inflammatory bowel disease; experiment: DSS model: gross pathology score; assay type: in vivo, C57BL/6 mice; settings: FIG. 9
Experimental: Eight-week old C57BL/6 mice were housed 5 animals were cage and given food and water ad libitum for 7 days. Following the 7-day acclimation period, treatments were initiated concurrently with addition of 2.5% DSS to the drinking water. […] The mice were treated with 2.5% dextran sodium sulfate (DSS) in their drinking water for 6 days. Treatments were continued with SG-14 or […]-GLP2 twice a day (b.i.d.) in the morning and evening (every 8 and 16 hr) with i.p. injections at 50 nmoles/kg. Fresh 2.5% DSS drinking water was prepared every 2 days. Gross pathology observations were made in mice included in the concurrent DSS model performed in this Example. […] The scoring system used was: (0)=no gross pathology, (1)=streaks of blood visible in feces, (2)=completely bloody fecal pellets, (3) bloody fecal material visible in cecum, (4) bloody fecal material in cecum and loose stool, (5)=rectal bleeding. The graph in FIG. 9 represents data pooled from the single experiment (n=10).

[7] = system: LPS binding protein (LBP); experiment: DSS model: LPS binding protein (LBP) in serum by ELISA; assay type: in vivo, C57BL/6 mice; settings: 50 nmoles/kg i.p. b.i.d., 2.5% DSS; FIG. 7
Experimental: Eight-week old C57BL/6 mice were housed 5 animals were cage and given food and water ad libitum for 7 days. Following the 7-day acclimation period, treatments were initiated concurrently with addition of 2.5% DSS to the drinking water. […] The mice were treated with 2.5% dextran sodium sulfate (DSS) in their drinking water for 6 days. Treatments were continued with SG-14 or Gly2-GLP2 twice a day (b.i.d.) in the morning and evening (every 8 and 16 hr) with i.p. injections at 50 nmoles/kg. Fresh 2.5% DSS drinking water was prepared every 2 days.
SG-14 was also assessed for its effects on the levels of LPS binding protein (LBP) in the blood of the DSS animal with and without SG-14 administration. LPS binding protein (LBP), which has been linked to clinical disease activity in subjects with inflammatory bowel disease, was also measured by ELISA in the serum of mice tested in the DSS model described in Example 7. […] Results are shown in FIG. 7, and are presented as mean f SEM. The graph in FIG. 7 represents data pooled from the single experiment (n=10).

B1: SG-14: Eubacterium eligens protein comprising SEQ ID NO:3; tested form expressed in E. coli, with exogenous GPLG at N-terminus and PHRD at C-terminus (protein)
chain: GCARNSTSTTTASGGETTITSAITKEDTDVTHADDAENYRVSITGDFTVTSDTSDGVTQSGSVYTITKAGEYTVTGLLSEGQLIVDAGNENEVTIVLNGTSITCSSGSPIYVKNASEVKIKSEENSFNEVIDNRNEATEDSSDDAGNAAIYATCDLKLVGKGALVVTGNYNNGIQSKDDLSIKNVIVKVTAVNNAVKVNDAVDIESGNIIAISAKGDGIKTSNSSISNKGNQKGIVTITSGNIDIYAACDGIDASYGADISGDGNLNIYTDTYSEYSEEVTSSGSSSGTSSGRDSSANKSASANTVSYVATSDTIANAPSGFGGGNMGSGNAPDMSNGNAPNMNGSSDRNKTGGNRPGMPGDFNESGNSSGQSYSTKGIKAESEINISGFTINICSTDDGIHANSDSGVLETGEDGKGTIVINGGSITISSGDDGMHADKQLDVNDGYINVVTSYEGLEAMTINLNGGKIYVYATDDGINACTGDGKTSPIVNVTGGYIDVTTTSGDTDGIDSNGNYVQTGGFVLVKGGSSSGNVSGSIDVDGTVTITGGTCVALGGVCETPVNSANAYVLGSVSFSSGSYSLKDSSGNEVISFTVDGSFSNGWICSDTLTTGSSYTLYRGADSIADWTQE
modifications: N-terminal GPLG and C-terminal PHRD
TEER of epithelial cell barrier (percent of untreated) ([1]; SG-14 1 pg/ml (40 nM) added 1 hour (FIG. 1A; text also says 30 minutes) before HK E. coli, HK E. coli alone 70.0%): 72.2% | TEER of epithelial cell barrier (percent of untreated) ([1]; SG-14 1 pg/ml (40 nM) pre-incubated 6 hours before HK E. coli (FIG. 1B), without SG-14 71.4%): 78.7% | 4 KDa-FITC dextran in serum vs DSS mice treated with vehicle [2]: significant reduction | Magnitude of 4 KDa-FITC dextran translocation vs Gly2-GLP2 [2]: even lower than the positive control | Colon length ([3]; FIG. 10): prevented colon shortening | Ratio between colon weight and length ([3]; FIG. 11): significant reduction | IL-10 production normalized to HK E. coli (set to 1.0) [4]: 1.21 | TNF-α production normalized to HK E. coli (set to 1.0) [5]: 0.77 | Gross pathology score (0-5) vs vehicle treated DSS mice ([6]; 50 nmoles/kg i.p. b.i.d., 2.5% DSS): significantly improved gross pathology | Clinical scores vs DSS mice treated with Gly2-GLP2 [6]: No differences | Serum LBP concentration vs DSS mice treated with vehicle [7]: significant reduction | Serum LBP concentration vs control peptide Gly2-GLP2 [7]: greater impact on LBP concentration
